The record followed here is patent publication US20240218057A1 (ROCKEFELLER UNIVERSITY, published 2024).

Residue numbers refer to the chain shown, from its start.

The labels stand for the following.
B1: C926 (antibody, V domains shown)
VH: QVQLVESGGGVVQPGRSLRLSCAASGFGLITYSMHWVRQAPGKGLEWVGLISFDGNTTYYADSVRGRFTISRDNLANILYLQMNSLRPDDTALYYCARDKRGVIRGLLNFWGQGSLVTVSS
VL: DIVMTQSPDSLAVSLGERATINCKSSQSLLPSSNSNNYLAWYQQKSGQPPNLLIYWASTRESGVPDRFSGSGSETDFSLTISNLQAEDVAVYYCQQYYNTPHTFGGGTKVEI
B2: C913 (antibody, V domains shown)
VH: EVQLVESGGVVVQPGGSLRLSCAASGFTFDDYSMHWVRQVPGKGLEWIAVIFWDGTSTYYADSVKGRFTISRDNSKKSLYLQMNSLRSEDTALYYCAKDSEDCSSTSCYVDHWGQGTLVTVSS
VL: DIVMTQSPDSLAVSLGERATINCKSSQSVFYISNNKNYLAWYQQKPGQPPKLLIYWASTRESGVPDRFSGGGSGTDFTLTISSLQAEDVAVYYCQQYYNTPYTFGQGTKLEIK
B3: C929 (antibody, V domains shown)
VH: EVQLVESGGGLIQPGGSLRLSCAASGFTVSSNYMTWVRQAPGKGLEWVSVIYSGGTTYYADSVKGRFTISRDNSKNTLYLQMNSLRAEDTAVYYCARDLVVWGMDVWGQGTTVTVSS
VL: DIQLTQSPSFLSASVGDRVTITCRASQGISSYLAWYQQKPGKAPKLLIYAASTLQSGVPSRFSGSGSGTEFTLTISSLQPEDFATYYCQLLNSYPYTFGQGTKLEIK
B4: C936 (antibody, V domains shown)
VH: B3 VH with T35S, T56S, Y58F, V100G, V101T, W102G, G103L, M104F, V106Y, T112L
VL: DIQLTQSPSFLSASVGDRVTITCRASQGISSYLAWYQQKPGKAPKLLIYAASTLQSGVPSRFSGSGSGTEFTLTISSLQPEDFATYYCQQLDSYPPGTFGPGTKVDIK
B5: C937 (antibody, V domains shown)
VH: EVQLVESGGGLIQPGGSLRLSCAASELTVSSNYMSWVRQAPGKGLEWVSVIYPGGSTFYADSVKGRFTISRDNSKNTLYLQMNSLRAEDTAVYYCARDLGTGLFDYWGQGTLVTVSS
VL: B4 VL with Y87F, Q90L, D92N, Y94N
B6: C930 (antibody, V domains shown)
VH: B3 VH with I12F, S21A, F27I, T35S, A40P, S53A, T56S, Y58F, F67L, M82I
VL: B3 VL with L90Q, S93T
B7: C927 (antibody, V domains shown)
VH: QVQLVESGGGVVQPGRSLRLSCVASGFTFSYFDMHWVRQAPGKGLEWVALISHDGSTTFYGDSARGRFTISRDNSRNTLDLQMNSLRPEDTAVYFCAKPVDAAMFDFWGQGTLVTVS
VL: SYELTQPPSVSVAPGKTARITCGGNNIGSKSVHWYQQRPGQAPVLVIYYDSDRPSGIPERFSGSNSGNTATLTISRVEAGDEADFYCQVWDRSTNHLVVFGGGTQLTVL
B8: C932 (antibody, V domains shown)
VH: QVQLVESGGSVVQPGKSLRLSCAGSGFAFSTYGMHWVRQAPGKGLEWVAVISSDGGNKYYADSVKGRFTISRDNYENTLYLQMNSLGAEDTAVYYCAKVALRGVFISLYYGMDVWGQGTTVTVSS
VL: SYELTQPPSVSVTPGQTASITCSGDKLGDKYACWFLQKPGQSPLLVIYQDTKRPSGIPDRLSGSKSGNTATLTISGTQAMDEADYYCQTWDSSAVVFGGGTKLTV
B9: C934 (antibody, V domains shown)
VH: QVQLVQSGAEVKKPGASVKVSCKASGYTFTDYYIHWVRQAPGQGLEWMGWINPNSGGTNYAQKFQGRVTMTRDTSISTAYMDLSRLRSDDTAVYYCARDVIITMGRGVVFRMDVWGQGTTVTVSS
VL: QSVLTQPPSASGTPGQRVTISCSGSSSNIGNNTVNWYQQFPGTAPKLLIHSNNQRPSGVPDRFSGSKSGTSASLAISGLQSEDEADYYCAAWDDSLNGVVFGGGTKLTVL
B10: C938 (antibody, V domains shown)
VH: QVQLVESGGGVVQPGRSLRLSCAASGFTFRSHAMHWVRQAPGKGLEWVAIISSDGFNKYYADSVKGRFTISRDNSKNTLYVHMNSLRVEDTAIYYCASGLLWFETREISGAPDYGMAVWGQGATVTVSS
VL: DIQMTQSPSSLSASVGDRVTITCRASQNISNFLNWYQQKPGKAPKLLIYAASSLQSGVPSRYSGSGSGTDFTLTISSLQAEDFATYYCQQSYSTPLTFGGGTKVEIK
B11: C924 (antibody, V domains shown)
VH: QVQLVESGGGVVQPGRSLRLSCAASGFTFSSYGMHWVRQAPGKGLEWVAVISDDGSNKYYADSVKGRFTISRDNSKNTLYLQMNSLRAEDTAVYYCAKSWWLSENWFDPWGQGTLVTVSS
VL: EIVMTQSPATLSVSPGERATLSCRASQSVSSNLAWYQQKPGQAPRLLIYGASTRATGIPARFSGTGSGTEFTLTISSLQSEDFAVYYCQQYNNWPLTFGGGTKVEIK
B12: C925 (antibody, V domains shown)
VH: B11 VH with S31N, M34L, I51T, S56N, N57R, N74D, S85N, A88T
VL: B11 VL with S30R, K39R, S52F, G64V, T65S, S76D
B13: C931 (antibody, V domains shown)
VH: QVQLVESGGGVVQPGRSLRLSCAASGFSFSTYGMHWVRQAPGKGLEWVAVISFDGSQKYYGDSVKGRFTISRDNPKNTLDLQMNSLRAEDTAVYYCAKVVVRGVIISLYYGMDVWGQGTTVTVSS
VL: not shown
B14: C951 (antibody, V domains shown)
VH: QVQLQESGPRLVKPSGTLSLTCAVSGGSISTTNWWSWVRQPPGKGLEWIGEIHHSGNTNYNPSLKSRVTISVDRSKNQFSLKLSSVTAADTAVYFCARDGGRPGDPFDIWGQGTMVTVSS
VL: QSALTQPASVSGSPGQSITISCTGTSSDVGGYNYVSWYQQHPGKAPNLMIYDVSDRPSGVSNRFSGSKSGNTASLTISGLQAEDEADYYCNSFTSNSTRVFGTGTKVTV
B15: C928 (antibody, V domains shown)
VH: QVQLVESGGGVVQPGRSLRLSCAASGFTFSFFDMHWVRQAPGKGLEWVADISYDGSNQYYGDSVKGRFTISRDNSKSTLYLQMNSLRAEDTAVYYCAKPVDTAMFDSWGQGTLVTVSS
VL: SYELTQPPSVSVAPGETARITCGGNNIGHKSVHWYQQQPGQAPVLVIYYDSERPSGIPERFSGSNSGNTATLTISRVEAGDEADYHCQVWDGGNDHLVIFGGGTKLTVL
B16: C935 (antibody, V domains shown)
VH: QVQLVESGGGVVQPGRSLRLSCAATGFTFSSYGMHWVRQAPGKGLEWVALIWYDGSNQYYVDSVKGRFTISRDNSKKTLYLQMNSLRVEDTAVYYCARDFSNSDMVTLSDAFDIWGQGTMVTVSS
VL: DIQLTQSPSFLSASVGDRVTIACRASQGISSYSSYLAWYQQKPGKAPKLLIYAASTLQSGVPSRFSGSGSGTEFTLTISSLQPEDFATYYCQQLNSYPLFTFGPGTKVDIK
B17: C923 (antibody, V domains shown)
VH: QVQLVESGGGLVKPGGSLRLSCAASGFTFSDYHMTWIRQAPGKGLEWVSYISNRSTYRNYADSVKGRFTISRDNAKNSLYLQMNSLRAEDTAVYYCARDGGAYDRFDYWGQGTLVTVSS
VL: DIQMTQSPSSLSASVGDRVTITCQASQDIKKFLNWYQQKPGKAPKLLIYDASNLETGVPSRFSGSGSGTDLTFTISSLQPEDIATYYCQQYDNLPLTFGQGTKLEIK
B18: C939 (antibody, V domains shown)
VH: QVQLVESGGGVVQPGRSLRLSCAASGFTFSSYAMHWVRQAPGKGLESVALISHDGSNKYHADSVKGRLTISRDTSKNTLYLQMDSLRPEDTAVYYCASGLLWFETAGGSGAPDYGMAVWGQGTTVTVSS
VL: DIQMTQSPSSLSASVGDRVTITCRASQSISTYLNWYQQKPGRAPKFLIYAASSLQSGVPSRFSGSGSGTDFTLIISGLQPEDFATYFCQQSYNTPLTFGGGTKVEIK

Usually EC50 stands for the concentration at which the effect is half-maximal. Higher therefore signals weaker potency.

The target in this experiment is T1, SARS-COV-2 RBD (SARS-COV-2, UniProt P0DTC2 319-539).
T1 construct: also called WT RBD
The experiment in a line: ELISA, RBD coated on plate. For orientation: In an ELISA, binding on a coated surface is turned into a signal by an enzyme label.
The molecule B1 showed an EC50 of 4.72 ng/mL.
B2 showed an EC50 of 2.58 ng/mL.
In the case of B3, a half-maximal response (EC50) required 2.07 ng/mL.
Regarding B4, the response was half-maximal at 1.56 ng/mL (EC50).
In the case of B5 it was 0.97 ng/mL; in that of B6, 1.24 ng/mL.
For B7 the value was 3.77 ng/mL; for B8, 3.57 ng/mL.
In the case of B9 it was 0.95 ng/mL; in that of B10, 2.63 ng/mL; in that of B11, 2.5 ng/mL.
B12 had an EC50 of 2.26 ng/mL.
For B13, a half-maximal response (EC50) required 2.57 ng/mL.
Molecule B14 gave an EC50 of 0.81 ng/mL.
In turn, B15 registered an EC50 of 4.14 ng/mL.
Molecule B16 showed an EC50 of 2.86 ng/mL.
The molecule B17 displayed an EC50 of 1.95 ng/mL.
In the case of B18, the EC50 came to 3.62 ng/mL.
